IC50 of inhibition of PAI-1-wt activity, chromogenic plasminogen-coupled assay with tPA (residual tPA activity; pair blocked: PAI-1/tPA), Nb93 1 to 512 nM and maximum inhibition of PAI-1-wt activity, chromogenic plasminogen-coupled assay with tPA (pair blocked: PAI-1/tPA), Nb93 1 to 512 nM data for one molecule are collected here from article PMC7461574.

The target in the test is non-glycosylated wild-type PAI-1 (PAI-1-wt) (human) (UniProt P05121).
Chain of UniProt P05121 (P05121 24-402): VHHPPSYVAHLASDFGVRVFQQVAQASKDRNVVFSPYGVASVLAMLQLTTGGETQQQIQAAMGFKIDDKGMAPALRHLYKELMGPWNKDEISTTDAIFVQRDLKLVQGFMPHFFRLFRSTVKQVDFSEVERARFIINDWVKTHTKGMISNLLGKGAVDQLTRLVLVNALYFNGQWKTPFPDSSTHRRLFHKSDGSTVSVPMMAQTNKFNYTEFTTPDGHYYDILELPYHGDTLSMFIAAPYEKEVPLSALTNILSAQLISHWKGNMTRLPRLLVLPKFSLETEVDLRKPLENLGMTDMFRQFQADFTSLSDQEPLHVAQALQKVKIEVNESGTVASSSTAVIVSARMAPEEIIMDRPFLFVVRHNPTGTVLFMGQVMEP

B1: VHH-s-a93 (Nb93) (VHH)
VHH: QVQLVESGGGLVQPGGSLRLSCAASGFSLDNYAIGWFRQAPGKEREGVSCISSSDGSTYYTDSVEGRFTISRDNAKNTVYLQMNSLKPDDTAVYYCAADYGSSWCTFNGMDYWGQGTQVTVSS
Molecule B1 yielded an IC50 of inhibition of PAI-1-wt activity, chromogenic plasminogen-coupled assay with tPA (residual tPA activity; pair blocked: PAI-1/tPA), Nb93 1 to 512 nM of 202 nM and a maximum inhibition of PAI-1-wt activity, chromogenic plasminogen-coupled assay with tPA (pair blocked: PAI-1/tPA), Nb93 1 to 512 nM of 55%.
